Test results: patent US20040132033
pKd: −log10 of the molar value.

Assays:
Experiment in all cases: EMSA
SBS#1140 ZFP (synthetic) = details: 100 mM KCl, 1 mM MgCl2, 100 uM ZnCl2, pH 7.5, RT
SBS#1750 ZFP (synthetic) = details: 100 mM KCl, 1 mM MgCl2, 100 uM ZnCl2, pH 7.5, RT
SBS#1760 ZFP (synthetic) = details: 100 mM KCl, 1 mM MgCl2, 100 uM ZnCl2, pH 7.5, RT
SBS#1764 ZFP (synthetic) = details: 100 mM KCl, 1 mM MgCl2, 100 uM ZnCl2, pH 7.5, RT
SBS#1755 ZFP (synthetic) = details: 100 mM KCl, 1 mM MgCl2, 100 uM ZnCl2, pH 7.5, RT
SBS#779 ZFP (synthetic) = details: 100 mM KCl, 1 mM MgCl2, 100 uM ZnCl2, pH 7.5, RT
SBS#1756 ZFP (synthetic) = details: 100 mM KCl, 1 mM MgCl2, 100 uM ZnCl2, pH 7.5, RT
SBS#1770 ZFP (synthetic) = details: target also SEQ 111; 100 mM KCl, 1 mM MgCl2, 100 uM ZnCl2, pH 7.5, RT
SBS#781 ZFP (synthetic) = details: 100 mM KCl, 1 mM MgCl2, 100 uM ZnCl2, pH 7.5, RT
SBS#519 ZFP (synthetic) = details: listed twice (-343 and -329, same 9 bp, SEQ 21 and 23); 100 mM KCl, 1 mM MgCl2, 100 uM ZnCl2, pH 7.5, RT
SBS#386 ZFP (synthetic) = details: 100 mM KCl, 1 mM MgCl2, 100 uM ZnCl2, pH 7.5, RT
SBS#705 ZFP (synthetic) = details: 100 mM KCl, 1 mM MgCl2, 100 uM ZnCl2, pH 7.5, RT
SBS#713 ZFP (synthetic) = details: 100 mM KCl, 1 mM MgCl2, 100 uM ZnCl2, pH 7.5, RT
SBS#1757 ZFP (synthetic) = details: 100 mM KCl, 1 mM MgCl2, 100 uM ZnCl2, pH 7.5, RT
SBS#1772 ZFP (synthetic) = details: 100 mM KCl, 1 mM MgCl2, 100 uM ZnCl2, pH 7.5, RT

AAGGGTGCG (double strand) [SBS#1140 target (-287)]
pKd (SBS#1140 ZFP (synthetic)): 9.52

ATGGAGGGC (double strand) [SBS#1750 target (-147)]
pKd (SBS#1750 ZFP (synthetic)): 10.96

ATGGCCGGG (double strand) [SBS#1760 target (-299)]
pKd (SBS#1760 ZFP (synthetic)): 9.38

CAAGTGGGT (double strand) [SBS#1764 target (-286)]
pKd (SBS#1764 ZFP (synthetic)): 9.96

CGGGAGGCC (double strand) [SBS#1755 target (-319)]
pKd (SBS#1755 ZFP (synthetic)): 11.22

CGGGGAGCA (double strand) [SBS#779 target (-356)]
pKd (SBS#779 ZFP (synthetic)): 9.30

CGGGGAGGA (double strand) [SBS#1756/1770 target (-342)]
pKd (SBS#1756 ZFP (synthetic)): 9.90
pKd (SBS#1770 ZFP (synthetic)): 11.00

GGGGAGCAG (double strand) [SBS#781 target (-357)]
pKd (SBS#781 ZFP (synthetic)): 8.37

GGGGAGGAG (double strand) [SBS#519 target (-343 and -329)]
pKd (SBS#519 ZFP (synthetic)): 8.95

GGGGCGGAG (double strand) [SBS#386 target (-111)]
pKd (SBS#386 ZFP (synthetic)): 9.40

GGGGCGGGG (double strand) [SBS#705 target (-201)]
pKd (SBS#705 ZFP (synthetic)): 11.00

GGTGAGGAG (double strand) [SBS#713 target (-127)]
pKd (SBS#713 ZFP (synthetic)): 9.82

GGTGCGGAG (double strand) [SBS#1757 target (-290)]
pKd (SBS#1757 ZFP (synthetic)): 10.30

GTGGGTGAT (double strand) [SBS#1772 target (-277)]
pKd (SBS#1772 ZFP (synthetic)): 11.22
